The Human Domainome abundance scans (Beltran et al. 2025)
± gives the uncertainty stated by the source.

B1: Double-stranded RNA-binding protein Staufen homolog 1, residues 183 to 249; numbered along this chain, O95793 (parent)
chain: KSEISQVFEIALKRNLPVNFEVARESGPPHMKNFVTKVSVGEFVGEGEGKSKKISKKNAAIAVLEEL

Variants of: B1
Assay: abundance fitness (aPCA) (normalised: wild type 0, dead -1); higher = more abundant; growth selection in yeast, the domain comes from the species named
Conditions: Homo sapiens

Variant	abundance fitness
KSEISQVFEIALKRNLPVNFEVARESGPPHMKNTVTKVSVGEFVGEGEGKSKKISKKNAAIAVLEEL	-0.428 ± 0.048
KSEISQVFEIALKRNLPVNFEVARESGPPHMKNEVTKVSVGEFVGEGEGKSKKISKKNAAIAVLEEL	-0.56 ± 0.051
KSEISQVFEIALKRNLPVNFEVARESGPPHMKNLVTKVSVGEFVGEGEGKSKKISKKNAAIAVLEEL	-0.698 ± 0.044
KSEISQVFHIALKRNLPVNFEVARESGPPHMKNFVTKVSVGEFVGEGEGKSKKISKKNAAIAVLEEL	-0.155 ± 0.079
KSEISQVFWIALKRNLPVNFEVARESGPPHMKNFVTKVSVGEFVGEGEGKSKKISKKNAAIAVLEEL	-0.506 ± 0.064
KSEISQVFEIALKRNLPVNFETARESGPPHMKNFVTKVSVGEFVGEGEGKSKKISKKNAAIAVLEEL	0.034 ± 0.042
KSEGSQVFEIALKRNLPVNFEVARESGPPHMKNFVTKVSVGEFVGEGEGKSKKISKKNAAIAVLEEL	-0.735 ± 0.056
ESEISQVFEIALKRNLPVNFEVARESGPPHMKNFVTKVSVGEFVGEGEGKSKKISKKNAAIAVLEEL	-0.263 ± 0.081
DSEISQVFEIALKRNLPVNFEVARESGPPHMKNFVTKVSVGEFVGEGEGKSKKISKKNAAIAVLEEL	-0.235 ± 0.095
NSEISQVFEIALKRNLPVNFEVARESGPPHMKNFVTKVSVGEFVGEGEGKSKKISKKNAAIAVLEEL	-0.079 ± 0.12
KSEISQVFEIALKRNLPVNFEVARESGPPHMKNFMTKVSVGEFVGEGEGKSKKISKKNAAIAVLEEL	-0.083 ± 0.058
KSEISQVFEIALKRNLMVNFEVARESGPPHMKNFVTKVSVGEFVGEGEGKSKKISKKNAAIAVLEEL	-0.172 ± 0.07
KSEISQVFEIALKRNLRVNFEVARESGPPHMKNFVTKVSVGEFVGEGEGKSKKISKKNAAIAVLEEL	-0.025 ± 0.051
KSEISQVFEIALVRNLPVNFEVARESGPPHMKNFVTKVSVGEFVGEGEGKSKKISKKNAAIAVLEEL	-0.215 ± 0.055
KSEISQVFEIALKRNLPVNFEVARESGPPHMKNFVTKVSVGEFVGEGEGKSKKISKKNAAIAVLEEV	-0.439 ± 0.076
KSEISQVFEIALKRNLPVNFEVARESGPPHMKNFVTKVSVGEFVGEGESKSKKISKKNAAIAVLEEL	-0.483 ± 0.043
KSEISQVFEIALKRNLPVNFEVARESGPPHMKNFVTKVSVGEFVGEGEVKSKKISKKNAAIAVLEEL	-0.694 ± 0.04
KSEISQVFEIALKRNLPVNFEVARESGPPHMKNFVTKVSVGEFVGEGEGKSKKISKKNANIAVLEEL	-0.739 ± 0.095
KSEISQVFEIALKRNLPVNAEVARESGPPHMKNFVTKVSVGEFVGEGEGKSKKISKKNAAIAVLEEL	-0.499 ± 0.048
KSEISQVFEIALKRNLPVNFEVARESGPPHMKNFVTKLSVGEFVGEGEGKSKKISKKNAAIAVLEEL	-0.081 ± 0.039
KSEISQVFEIALKRNLPVNFEVARESGPPHMKNFVTKVSVGEFVGEGEGKSKKISHKNAAIAVLEEL	-0.743 ± 0.33
KSEISQVFEIALKRNLPVNFEVARESGPPHMKNFVTKVSVGEFVGEGEGKSKKISQKNAAIAVLEEL	-0.291 ± 0.1
KDEISQVFEIALKRNLPVNFEVARESGPPHMKNFVTKVSVGEFVGEGEGKSKKISKKNAAIAVLEEL	-0.382 ± 0.072
KKEISQVFEIALKRNLPVNFEVARESGPPHMKNFVTKVSVGEFVGEGEGKSKKISKKNAAIAVLEEL	-0.015 ± 0.099
KWEISQVFEIALKRNLPVNFEVARESGPPHMKNFVTKVSVGEFVGEGEGKSKKISKKNAAIAVLEEL	-0.902 ± 0.16
KSEISQVFEIALKRNLPVNFEVARESGTPHMKNFVTKVSVGEFVGEGEGKSKKISKKNAAIAVLEEL	-0.177 ± 0.07
KSEISQVFEIALKRNLPVNFEVARESGPPHMKNFVTKVSVGEFVGEGEGKEKKISKKNAAIAVLEEL	-0.553 ± 0.098

Variant	abundance fitness
KSEISQVFEIALKRNLPVNFEVARESGPPHMKNFVTKVSVGEFVGEGEGKSKKIEKKNAAIAVLEEL	-0.662 ± 0.059
KSEISQVFEIALKRNLPVNFEVARESGPPHMKNFVTKVSVGEFVGEGEGKSKKIKKKNAAIAVLEEL	-0.889 ± 0.069
KSEISQVFEIALKRNLPVNFEVARESGPPHMKNFVTKVSVGEFVGEGEGKSKKSSKKNAAIAVLEEL	-0.066 ± 0.045
KSEISQVFEIALKRNLPVNFEVARESGPPHMKNFVTKVSVGEFVGEGEGKSKKLSKKNAAIAVLEEL	-0.017 ± 0.036
KSEISQVFEIALKRNLPVNFEVARESGPPHMKNFVTKVSVGEFVGEGEGKSKKISKKFAAIAVLEEL	-0.434 ± 0.071
KSEISQVFEIALKRNLPVNFEVARESGPPHMKNFVTKVSVGEFVGEGEGKSKKISKKAAAIAVLEEL	-0.171 ± 0.056
KSEISQVFEIALKSNLPVNFEVARESGPPHMKNFVTKVSVGEFVGEGEGKSKKISKKNAAIAVLEEL	-0.31 ± 0.056
KSEISQVFEIALKVNLPVNFEVARESGPPHMKNFVTKVSVGEFVGEGEGKSKKISKKNAAIAVLEEL	-0.6 ± 0.061
KSEISQVFEIALKRNLPVNFEVARESGPPHMKNFVTKVSVGEFVAEGEGKSKKISKKNAAIAVLEEL	0.069 ± 0.039
KSEISQVFEIALKRNLPVNFEVARESGPPHMKNFVTKVSVGEFVYEGEGKSKKISKKNAAIAVLEEL	-0.422 ± 0.096
KSEISQVFEIALKRNLPVNFEVARESGPPQMKNFVTKVSVGEFVGEGEGKSKKISKKNAAIAVLEEL	-0.11 ± 0.055
KSEISQVFEIALKRNLPVNFEVARESGPPHMKNFVTKVSVGEFVGEGEGKSKKISKKNAAQAVLEEL	-0.14 ± 0.059
KSEISQVFEIALKRNLPVNFEVARESGPPHMKNFVTKVSVGEFVGEGEGKSKKISKKNAANAVLEEL	-0.181 ± 0.069
KSEISQVFEIALKRNLPVNFEVARESGPPHMKNFVTKVSVGEFVGEGEGKSKKISKKNAAIAVGEEL	-0.44 ± 0.05
KSEISQVFEIALKRNLPVNFEVARESGPPHMKNFVTKVSVGEFCGEGEGKSKKISKKNAAIAVLEEL	0.033 ± 0.1
KSEISQVFEIALKRNLPVNFEVARESGPPHMKNFVTKVSVGEFWGEGEGKSKKISKKNAAIAVLEEL	-0.112 ± 0.049
KSEISQVFEIALKRNLPVNFEVARESGPPHMKNFVTKVSFGEFVGEGEGKSKKISKKNAAIAVLEEL	-0.564 ± 0.088
KSEISQVFEIALKRNLPVNFEVARESGPPHMKNFVTKVSMGEFVGEGEGKSKKISKKNAAIAVLEEL	-0.312 ± 0.061
KSEISEVFEIALKRNLPVNFEVARESGPPHMKNFVTKVSVGEFVGEGEGKSKKISKKNAAIAVLEEL	-0.021 ± 0.037
KSEISNVFEIALKRNLPVNFEVARESGPPHMKNFVTKVSVGEFVGEGEGKSKKISKKNAAIAVLEEL	-0.494 ± 0.03
KSEISIVFEIALKRNLPVNFEVARESGPPHMKNFVTKVSVGEFVGEGEGKSKKISKKNAAIAVLEEL	-0.393 ± 0.034
KSEISQVFEIALKRNLPVNFEVARESGPPHMKNFVTKVSVGHFVGEGEGKSKKISKKNAAIAVLEEL	0.014 ± 0.11
KSEISQVFEIALKRNLPVNFEVARESGPPHMKNFVTKVSVGLFVGEGEGKSKKISKKNAAIAVLEEL	-0.255 ± 0.04
KSEISQVFEIALKRNLPVNFEVARESGPPHMKNFVTKVSVGTFVGEGEGKSKKISKKNAAIAVLEEL	-0.048 ± 0.051
KSEISQVFEIALKRNLPVNFEVARESGPPHMKNFVTKVSVGEFVGEGEGESKKISKKNAAIAVLEEL	-0.004 ± 0.054
KSEISQVFEIALKRNLPVNFEVARESGPPHMKNFVTKVSVGEFVGEGEGDSKKISKKNAAIAVLEEL	-0.17 ± 0.08
KSEISQVFEIALKRNLPVNFEVARESGPPHMKNFVTKVSVGEFVGEGEGKSKKISKKNAAIAVLWEL	-0.388 ± 0.065

Variant	abundance fitness
KSEISQVFEIALKRNLPVNFEVARESGPPHMKNFVTKVSVGEDVGEGEGKSKKISKKNAAIAVLEEL	-0.628 ± 0.1
KSEISQVFEIALKRNLPVNFEVARESGPPHMKNFVTRVSVGEFVGEGEGKSKKISKKNAAIAVLEEL	0.034 ± 0.059
KSEISQVFEIALKRNLPVNFEVARESGPPHMKNFVTKVSVGEFVGEGEGKSKKISKKNAAIEVLEEL	-0.353 ± 0.058
KSEISQVFEIALKRNLPVNFEVARKSGPPHMKNFVTKVSVGEFVGEGEGKSKKISKKNAAIAVLEEL	0.046 ± 0.055
KSEISQVFEIALKRNLPVNFEVARESGPPHMKNFVTKVSVGEFVGEGEGKSNKISKKNAAIAVLEEL	-0.622 ± 0.088
KSEISQVFEIALKRNLPVNFEVARESGPPHMKNFVTKVSVGEFVGEGEGKSRKISKKNAAIAVLEEL	-0.098 ± 0.039
KSEISQVFEIALKRNLPVNFEVARESGPPHMKNFVTKVSVGEFVGEGEGKSIKISKKNAAIAVLEEL	-0.175 ± 0.074
KSEISQVFEIALKRNLPVNFEVARESGPPHMKNFVGKVSVGEFVGEGEGKSKKISKKNAAIAVLEEL	-0.664 ± 0.047
KSEISQVFEIALKRNLPVNFEVARESGPPHMKNFVPKVSVGEFVGEGEGKSKKISKKNAAIAVLEEL	-0.671 ± 0.071
KSEISQVFEIALKRNLPVNFEVARESGPPHMKNFVTKVSVDEFVGEGEGKSKKISKKNAAIAVLEEL	-0.761 ± 0.1
KSEISQVFEIALKRNLPVNFEVARESGPPHMKNFVTKVSVSEFVGEGEGKSKKISKKNAAIAVLEEL	-0.945 ± 0.062
KSEISQVFEIALKRNLPVHFEVARESGPPHMKNFVTKVSVGEFVGEGEGKSKKISKKNAAIAVLEEL	0.011 ± 0.078
KSEISQVFEIALKRNLPVYFEVARESGPPHMKNFVTKVSVGEFVGEGEGKSKKISKKNAAIAVLEEL	-0.167 ± 0.084
KSEISQVFEIALKRNLPVNFEVARESGPPHMKNFVTKVSVGEFVGEGYGKSKKISKKNAAIAVLEEL	0.002 ± 0.093
KSEISQVFEIALKRNLPVNFEVALESGPPHMKNFVTKVSVGEFVGEGEGKSKKISKKNAAIAVLEEL	-0.129 ± 0.035
KSEISQVFEIALKRNLPVNFEVATESGPPHMKNFVTKVSVGEFVGEGEGKSKKISKKNAAIAVLEEL	-0.085 ± 0.045
KSEISQVFEIALKRNLPVNFEVARESGPPHMKGFVTKVSVGEFVGEGEGKSKKISKKNAAIAVLEEL	-0.221 ± 0.047
KSEISQVFEIALKRNLPVNFEVARESGPPHMKNFVTKVSVGEFVGEGEGKSKKISKKNAAIAVLEWL	-0.079 ± 0.077
KSEISQVFEIALKRNLPVNFEVARESGPPHMKNFVTKVSVGEFVGEGEGKSKKISKKNAAIAVLEIL	0.097 ± 0.067
KSEISQVFEIALKRNLPVNFEVARESGPPHMKNFVTKVSVGEFVGEGEGKSKKISKKNAAIAVLESL	-0.005 ± 0.05
KSEISQVFEIALKRNLPVNFEVARESGPPHMKNFVTKVSVGEFVGEGEGKSKKISKKNAAIAVLEHL	-0.002 ± 0.085
KSEISQVGEIALKRNLPVNFEVARESGPPHMKNFVTKVSVGEFVGEGEGKSKKISKKNAAIAVLEEL	-0.332 ± 0.039
KSEISQVVEIALKRNLPVNFEVARESGPPHMKNFVTKVSVGEFVGEGEGKSKKISKKNAAIAVLEEL	-0.203 ± 0.04
KSEISQVFEIALKRNLPVNFEVARESGPPHMKNFVTKVSVGEFVGHGEGKSKKISKKNAAIAVLEEL	0.011 ± 0.088
KSEISQVFEIALKRNLPVNFEVARESGPPHMKNFVTKVSVGEFVGEGEGKSKAISKKNAAIAVLEEL	-0.129 ± 0.054
KSEISQVFEIALKRNLPVNFEVARESGPPHMKNFVTKVSVGEFVGEGEGKSKWISKKNAAIAVLEEL	-0.214 ± 0.053
